Drawing on US20140024050A1 (published 2014), this text covers binding result and Kd for eight molecules.

Bridges are numbered along the chain shown (N, C = ends). Where no end group is shown, it is not given here.

Sequences and labels used below:
B7: anti-PIVKA-II monoclonal antibody 3C10 (hybridoma-derived) (antibody, V domains shown)
VH: EVQLVESGGDLVKPGGSLKLSCAASGFTFSSYGMSWVRQTPDKRLEWVATISRGGSSTYYPDSVKGRFTISRDNAKNNLYLQMSSLKSEDTAMYYCASLNYGNFFDYWGQGTTLTVSS
VL: DVVMTQTPLSLPVSLGDQASISCRSSQSLVHSNGNTYLHWYLQKPGQSPKLLIYKVSNRFSGVPDRFSGSGSGTDFTLKISRVEAEDLGVYFCSQNRHVPPTFGGGTKLEIKR
notes: Mouse monoclonal from a GANP transgenic C57BL/6 mouse immunized with PIVKA-II 13-27 peptide-KLH; For the Kd by quenching the antibody carried Black Hole Quencher (I.R. 2.3); also called mAb 3C10; clone 3C10

For experiment [1], the target named is B7. In words: FCS displacement of Alexa488-PIVKAII (13-27) from mAb 3C10, positive control. The protocol: (§1) Then, various PIVKAII Gla domain (13-27) analogs were added to the sample. PIVKAII (13-27) was added as a positive control, and the original sample was used as a negative control. FCS measurements were performed on each sample after overnight incubation.

For experiment [2], the target named is B7. In words: FCS displacement: 2 nM Alexa488-PIVKAII (13-27) premixed with 10 nM mAb 3C10, analog added, overnight. The protocol:
as §1

Experiment [3] concerns the target T1, PIVKA-II antigen (heat-decarboxylated prothrombin) (UniProt P00734 44-622, Gla residues of the Gla domain decarboxylated to glutamic acid by heating dried prothrombin powder at 110 C for 8 hours).
T1 construct: Residues 13-27 are counted on the Gla domain
In words: FCS displacement of Alexa488-PIVKAII (13-27) from mAb 3C10 by PIVKA-II preparations. As to the method: Various amounts of PIVKAII from different preparations were added to the antigen-antibody complex. After overnight incubation, FCS measurements were performed on each sample.

Experiment [4] addresses T2, Alexa-488 labeled PIVKAII Gla domain peptide (13-27), cyclized (disulfide 5-10 (inferred); also: Alexa Fluor 488 attached via TFP active ester, site not given here).
T2 construct: also called Alexa488-PIVKAII (13-27); Alexa488-PIVKAII peptide (13-27 cyc)
T2 peptide: LERECVEETCSYEEA
The experiment is described as follows: fluorescence quenching (FRET) titration in solution, BHQ-labeled mAb, 0.05 nM Alexa488 peptide. The protocol: The binding curve was fit with a simple fitting model.
All binding measurements were performed in 10 mM HEPES buffer, pH 7.4, containing 0.15M NaCl, 3 mM EDTA, and 0.005% surfactant P20.

For LERECVEETCSYEEA (also called PIVKA-II peptide (13-27)) [PIVKAII (13-27) peptide, unlabeled], the binding result in experiment [1] is “binds”.

B1: Gla domain Factor X peptide (sequence 12) (peptide)
peptide: LERECMEETCSYEEA
notes: also called PIVKAII Gla domain (13-27) analog; PIVKAII peptide analog
Regarding B1, in experiment [2], the binding result is listed as “no binding”.

B2: Gla domain Protein C peptide (sequence 14) (peptide)
peptide: LERECIEEICDFEEA
notes: as for B1
As to B2, in experiment [2], the binding result is recorded as “no binding”.

B3: Gla domain Factor IX peptide (sequence 11) (peptide)
peptide: LERECMEEKCSFEEA
notes: as for B1
In the case of B3, the binding result in experiment [2] was “no binding”.

B4: Gla domain Factor VII peptide (sequence 13) (peptide)
peptide: LERECKEEQCSFEEA
notes: as for B1
Take B4: in experiment [2], the binding result is given as “no binding”.

B5: Gla domain Protein S peptide (sequence 15) (peptide)
peptide: LERECIEELCNKEEA
notes: as for B1
B5: in experiment [2], the binding result is reported as “no binding”.

B6: Gla domain Protein Z peptide (sequence 16) (peptide)
peptide: LEKECYEEICVYEEA
notes: as for B1
Turning to B6, the binding result in experiment [2] is “no binding”.

With B7, in experiment [3], the binding result was “binds”. Moreover, in experiment [4], binding was put at a Kd of 0.15 nM.

A word on the Kd: it is the concentration at which binding is half-saturated.
